Results from patent US12264201B2, “Bispecific antibody targeting IL-1R1 and NLPR3” (University of Ulster, priority 2018, dated 2025).

Target: NLRP3 inflammasome (Homo sapiens, UniProt Q96P20)
Test: In vitro assay of NLRP3 assembly (hybridoma clones)
Settings: compared among the hybridoma clones

Chain of NLRP3 inflammasome (Q96P20 whole entry): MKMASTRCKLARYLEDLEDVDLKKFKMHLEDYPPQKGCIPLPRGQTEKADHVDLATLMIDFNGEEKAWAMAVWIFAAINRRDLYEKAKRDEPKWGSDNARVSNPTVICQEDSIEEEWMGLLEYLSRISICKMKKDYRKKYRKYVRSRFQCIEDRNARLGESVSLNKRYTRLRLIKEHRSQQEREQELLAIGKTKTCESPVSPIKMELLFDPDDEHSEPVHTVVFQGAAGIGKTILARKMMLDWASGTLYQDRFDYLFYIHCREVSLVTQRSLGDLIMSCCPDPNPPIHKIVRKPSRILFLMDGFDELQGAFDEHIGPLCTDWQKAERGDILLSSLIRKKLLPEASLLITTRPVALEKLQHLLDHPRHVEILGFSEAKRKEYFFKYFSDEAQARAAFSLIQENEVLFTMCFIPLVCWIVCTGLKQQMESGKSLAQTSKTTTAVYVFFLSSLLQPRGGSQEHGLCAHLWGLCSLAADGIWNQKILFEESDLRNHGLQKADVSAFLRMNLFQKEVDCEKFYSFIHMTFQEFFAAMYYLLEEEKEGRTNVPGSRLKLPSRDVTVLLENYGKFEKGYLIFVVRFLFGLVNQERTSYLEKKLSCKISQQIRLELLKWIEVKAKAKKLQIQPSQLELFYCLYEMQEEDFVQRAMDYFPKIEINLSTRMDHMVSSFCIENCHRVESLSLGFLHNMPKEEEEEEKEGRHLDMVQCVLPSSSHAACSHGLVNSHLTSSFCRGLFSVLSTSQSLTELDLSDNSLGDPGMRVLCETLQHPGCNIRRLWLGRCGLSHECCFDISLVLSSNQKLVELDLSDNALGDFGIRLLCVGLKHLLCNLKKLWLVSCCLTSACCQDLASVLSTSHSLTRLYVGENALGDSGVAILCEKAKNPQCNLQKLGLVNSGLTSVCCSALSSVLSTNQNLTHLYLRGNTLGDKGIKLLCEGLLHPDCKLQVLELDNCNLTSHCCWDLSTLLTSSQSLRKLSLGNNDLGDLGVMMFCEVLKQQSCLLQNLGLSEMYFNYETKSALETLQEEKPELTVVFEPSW

preventing NLRP3 assembly: most active
B1: F226 7A7-1E1-2D5: anti-NLRP3 monoclonal antibody from hybridoma clone, sequenced and used in the bispecific; VH SEQ ID NO: 36, VL SEQ ID NO: 43 (antibody)
VH: MDFGLSWVFLVLVLKGVQCEVQLVESGGGLVKPGGSLKLSCAASGFTFSDYYMYWVRQTPEKRLEWVATISDGGTYTYYPDSVKGRFTISRDNAKNNLYLQMNSLKSEDTAMYYCARGWVSTMVKLLSSFPYWGQGTLVTVSAAKTTPPSVYPLA
VL: MAWISLLFSLLALSSGAISQAVVTQESALTTSPGETVTLTCRSSTGAVTTSNYANWVQEKPDHLFTGLIGGTNNRAPGVPARFSGSLIGDKAALTITGAQTEDEAIYFCALWYSNYWVFGGGTKLTVLGQPKSSPSVTLFPPSTEKLSL
